One molecule from US20260191905A1 (MODERNATX, published 2026) can be followed below.

This assay addresses T1, human GPC3 recombinant protein (human, UniProt P51654 25-559).
T1 construct: also called huGPC3; Human GPC3 protein
The experiment in a line: SPR epitope binning on human GPC3. As for the experimental part:
The 19 VHH-His tagged domains were then evaluated for epitope-binding site. All VHHs were injected one at a time to evaluate the epitope binding site for each VHH domain. […] Human GPC3 was injected followed by an off rate wash for 4 minutes. No binding is observed if the VHH binds at the same epitope as VHH2, while a second binding event is observed if the VHH binds at a different epitope. All VHHs were binned into two groups based on the epitopes. VHH2 and VHH3 bind the same epitope and all other VHs bind the second epitope (FIG. 19).

T1 sequence (P51654 25-559 limits assumed): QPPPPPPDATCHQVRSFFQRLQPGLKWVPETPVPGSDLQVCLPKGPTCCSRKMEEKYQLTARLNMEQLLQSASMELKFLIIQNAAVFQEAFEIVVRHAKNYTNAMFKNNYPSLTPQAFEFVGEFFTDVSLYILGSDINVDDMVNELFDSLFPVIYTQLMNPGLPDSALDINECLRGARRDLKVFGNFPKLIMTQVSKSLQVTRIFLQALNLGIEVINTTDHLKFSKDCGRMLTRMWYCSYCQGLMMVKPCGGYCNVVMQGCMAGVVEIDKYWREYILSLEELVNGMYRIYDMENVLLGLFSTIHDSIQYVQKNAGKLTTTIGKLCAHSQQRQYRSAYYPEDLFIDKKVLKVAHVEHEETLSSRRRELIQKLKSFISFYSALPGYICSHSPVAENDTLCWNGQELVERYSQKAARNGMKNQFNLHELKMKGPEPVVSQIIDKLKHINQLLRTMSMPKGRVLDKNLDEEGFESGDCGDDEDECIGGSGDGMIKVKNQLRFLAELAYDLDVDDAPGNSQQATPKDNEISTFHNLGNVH

B1: anti-GPC3 VHH-His tagged domain VHH19 (VHH)
VHH: EEQLVESGGGLVQPGGSLRLSCAASGFTFSSYAMSWVRQAPGKEPEWVSSISGGGGSTYYADSLKGRFTISRDNSKNTLYLQMNSLRAEDTAVYYCARDPRYGEPPFDYRCQGTTVTVSS
notes: Produced from a mammalian expression vector as a His fusion; not shown: His tag
Turning to B1, the binding result is “binds”.
